This is an account of results in patent US20100316634A1 (published 2010).

Experiment [1] deals with T1, recombinant human interleukin 5 (IL-5) (human, UniProt P05113 20-134, 125I label (Bolton-Hunter reagent) in the receptor binding inhibition and colony lift assays).
T1 construct: also called human IL-5; hIL-5
In words: optical biosensor.

In experiment [2] the target is T1, recombinant human interleukin 5 (IL-5). Put plainly: receptor binding inhibition, 125I-IL-5 on Drosophila membranes with the IL-5R alpha chain. How it is done:
Membrane extracts of Drosophila S2 cells expressing the […] of the human IL-5 Receptor (IL-5R) were used to measure the effect of antibody on IL-5 binding to receptor. To prepare the membranes, 10⁹ cells were pelleted at 1000×g at 4° C. for 10 min. The cell pellet was frozen in a dry ice/ethanol bath for 15 min. The pellet was thawed, resuspended in 10 ml PBS at 4° C. and pelleted at 1000×g for 10 min. The cell pellet was washed 2× in PBS and resuspended in 13.5 ml Hypotonic buffer (10 mM Tris pH 7.5, 3 mM MgCl₂, 1 mM dithiothreitol, 1 mM phenylmethylsulfonyl fluoride, 1 uM leupeptin, 1 uM pepstatin A) and incubated on ice for 5 min. The cell suspension was homogenized in a 15 ml Dounce homogenizer and brought to a final concentration of 0.25 M sucrose with a solution of 2.5 M sucrose. Cell debris was removed by a 15 min centrifugation at 1000×g. Cell membranes were pelleted at 100,000×g at 4° C. for 90 min and resuspended in 50 ml of 10 mM Tris pH 7.5, 3 mM MgCl₂, 250 mM sucrose, and stored at −70° C.
Assays with Drosophila membranes containing receptor were performed in MultiscreenGV plates (Millipore Corp., Bedford, Mass.) using Drosophila tissue culture medium M3 (Lindquist et al., Drosophila Inf. Serv., 58: 163 (1982)) containing 25 mM HEPES buffer pH 7.2 and 0.1% BSA (Binding Buffer). Wells were pre-blocked with 0.1 ml binding buffer. […] Filters were dried and counted.

As usually defined, the Kd is the concentration at which binding is half-saturated. The IC50 is the midpoint of a concentration-inhibition curve.

B1: recombinant Fab of mAb 2B6 with C-terminal hexa-His on the heavy chain (Fab, V domains shown)
VH: QVQLKESGPGLVAPSQSLSITCTVSGFSLTSYSVHWVRQPPGKGLEWLGVIWASGGTDYNSALMSRLSISKDNSKSQVFLKLNSLQTDDTAMYYCARDPPSSLLRLDYWGQGTTLTVSS
VL: DIVMTQSPSSLSVSAGEKVTMSCKSSQSLLNSGNQKNYLAWYQQKPGQPPKLLIYGASTRESGVPDRFTGSGSGTDFTLSISSVQAEDLAVYYCQNVHSFPFTFGSGTELEIK
notes: Expressed in E. coli from pMKFabGene3H after removal of gene III; N-terminal residues may be set by the PCR primers; also called Fab fragment from 2B6; 2B6 Fab; not shown: murine gamma 1 constant part of the Fd (CH1 to hinge); murine kappa constant region
B1: the Kd in experiment [1] is around 0.09 nM. For the same molecule, in experiment [2], the IC50 is around 7.5 mg/L.
